{"source": "the nanobody polyreactivity screen of Harvey et al. (2022)"}
{"assay": "yeast display, Sf9 membrane polyspecificity reagent, FACS + sequencing; frameworks hold sequencing errors", "summary_of_the_method": "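After 36–48 hours of galactose induction, yeast (Saccharomyces cerevisiae BJ5465) displaying a synthetic nanobody library were stained at 4 °C for 1 hour with 10% biotinylated, detergent-solubilized Sf9 membrane reagent. Streptavidin microbeads enriched the stained cells before FACS sorting into low and high (top ~1%) gates on anti-HA and streptavidin fluorescence. Each clone's polyreactivity label reflects its gate of origin.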"}
{"sequence": "QVQLVESGGGLVQAGGSLRLSCAASGITLRYYAMGWYRQAPGKERELVAAITYSGTNTRYADSVKGRFTISRDNAKNTVYFQMNSLKPEDTAVYYCAARNGFGSPQMGYWGQGTQVTVSS", "polyreactivity (PSR sort gate)": "high polyreactivity"}
{"sequence": "QVQLVESGGGLVQAGGSLRLSCAASGITLSIYAMGWYRQAPGKERELVAAINGNGGSTYYADSVKGRFTISRDNAKNTVYLQMNSLKPEDTAVYYCAVTDYVYEHDDYWGQGTEVTVSS", "polyreactivity (PSR sort gate)": "low polyreactivity"}
{"sequence": "QVQLVESGGGLVQAGGSLRLSCAASGITLSLYAMGWYRQAPGKERELVAAISRGGGRTYYADSVKGRFTISRDNAKNTVYLQMNSLKPEDTAVYYCNAYRRSYRWYGDLGEYWGQGTQVTVSS", "polyreactivity (PSR sort gate)": "high polyreactivity"}
{"sequence": "QVQLVESGGGLVQAGGSLRLSCAASGITLTIYTMGWYRQAPGKERELVAAINWSGTRTYYADSVKGRFTISRDNAKNTVYFQMNSLKPEDTAVYYCAATTYRYPNILGYDYWGQGTQVSVSS", "polyreactivity (PSR sort gate)": "high polyreactivity"}
{"sequence": "QVQLVESGGGLVQAGGSLRLSCAASGITLTRYAMGWYRQAPGKERELVAAITWSGGSTYYADSVKGRFTISRDNAKNTVYLQMNSLKPEDTAVYYCAAEYYEWVFWGYDYWGQGTQVTVSS", "polyreactivity (PSR sort gate)": "high polyreactivity"}
{"sequence": "QVQLVESGGGLVQAGGSLRLSCAASGITLVANTMGWYRQAPGKERELVATITSSGGSTYYADSVKGRFTISRDNAMNTVYLQMISLKPEDTAVYYCAASDLRYRGNYVYLPSEYWGQGTQVNVSS", "polyreactivity (PSR sort gate)": "low polyreactivity"}
{"sequence": "QVQLVESGGGLVQAGGSLRLSCAASGITLYFYAMGWYRQAPGKERELVAAISRGGRTYYADSVKGRFTISRDNAKNTVYLQMNSLKPEDTAVYYCAARYTSEYSAFDYWGQGTQVTVSS", "polyreactivity (PSR sort gate)": "low polyreactivity"}
{"sequence": "QVQLVESGGGLVQAGGSLRLSCAASGITLYFYAMGWYRQAPGKERELVAGISGSVGSTHYADSVKGRFTISRDNAKNTVYLQMNSLKPEDTAVYYCAARYPFLRPKVNYWGQGTQVTVSS", "polyreactivity (PSR sort gate)": "high polyreactivity"}
{"sequence": "QVQLVESGGGLVQAGGSLRLSCAASGITLYGYAMGWYRQAPGKEREFVAAISRSGDRTYYADSVKGRFTISRDNAKNTVYLQMNSLKPEDTAVYYCNAWRYDYWGQGTQVTVSS", "polyreactivity (PSR sort gate)": "high polyreactivity"}
{"sequence": "QVQLVESGGGLVQAGGSLRLSCAASGITLYRYVMGWYRQAPGKERELVADISGRGTSTYYADSVKGRFTISRDNAKNTVYLQMNSLKPEDTAVYYCNAEYTKTGALVIPYTYYYAEDYWGQGTQVTVSS", "polyreactivity (PSR sort gate)": "low polyreactivity"}
{"sequence": "QVQLVESGGGLVQAGGSLRLSCAASGITLYYYTMGWYRQAPGKERELVAAISGSGGSTYYADSVKGRFTISRDNAKNTVYLQMNSLKPEDTAVYYCNTARSLKNHFYKYDYWGQGTQVTVSS", "polyreactivity (PSR sort gate)": "high polyreactivity"}
{"sequence": "QVQLVESGGGLVQAGGSLRLSCAASGITSQSYAMGWYRQAPGKERELVAGISASGGRTFYADSVKGRFTISRDNAKNTVYLQMNSLKPEDTAVYYCNKLSSDSYNYWGQGTQVTVSS", "polyreactivity (PSR sort gate)": "high polyreactivity"}
{"sequence": "QVQLVESGGGLVQAGGSLRLSCAASGITSSAYAMGWYRQAPGKERELVARITWSGGRTHYADSVKGRFTISRDNAKNTVYLQMNSLKPEDTAVYYGYWLGYKEDDYWGQGTQVTVSS", "polyreactivity (PSR sort gate)": "high polyreactivity"}
{"sequence": "QVQLVESGGGLVQAGGSLRLSCAASGITSSRYAMGLYRQAPGKVRELVAAISSSGGSTYYADSVKGRFTSSRDNAKTTVYLQLISLKPEDTAVYYCNVVSTRLAKYTFGFWGQGTQVTVSS", "polyreactivity (PSR sort gate)": "high polyreactivity"}
{"sequence": "QVQLVESGGGLVQAGGSLRLSCAASGITSYPYAMGWYRQAPGKERELVAAISKRGGGTYYADSVKGRFTISRDNAKNTVYLQMNSLKPEDTAVYYCAKSWGPTTYKIVPAYGYWGQGTQVTVSS", "polyreactivity (PSR sort gate)": "high polyreactivity"}
{"sequence": "QVQLVESGGGLVQAGGSLRLSCAASGITYDKYAMGWYRQAPGKERELVAAITKSSGSTYYADSVKGRFTISRDNAKNTVYFQMNSLKPEDTAVYYCAAGIVYGYYYWGQGTQVTVSS", "polyreactivity (PSR sort gate)": "high polyreactivity"}
{"sequence": "QVQLVESGGGLVQAGGSLRLSCAASGIYGYNAMGWYRQAPGKERELVAAITSSGTSTYYADSVKGRFTISRDNAKNTVYLQMNSLKPEDTAVYYCAALHSGTWTGYGYWGQGTQVTVSS", "polyreactivity (PSR sort gate)": "low polyreactivity"}
{"sequence": "QVQLVESGGGLVQAGGSLRLSCAASGLALGWYRQAPGKERELVAVITSDGRTYYADSVKGRFTISRDNAKNTVYLQLNSLKPEDTAVYYCARDSRTIRYYAWFYPFRYDYWGQGTQVTVSS", "polyreactivity (PSR sort gate)": "low polyreactivity"}
{"sequence": "QVQLVESGGGLVQAGGSLRLSCAASGLFFSYYAMGWYRQAPGKERELVAAINSGGSTYYADSVKGRFTISRDNAKNTVYLQMNSLKPEDTAVYYCAAHLWYHGHLFDYWGQGTQVTVSS", "polyreactivity (PSR sort gate)": "high polyreactivity"}
{"sequence": "QVQLVESGGGLVQAGGSLRLSCAASGLICGFYAMGWYRQAPGKERELVADITTSGARTYYADSVKGRFTISRDNAKNTVYLQMYSLKPEDTAVYYCNKDHSSYGASGYDYWGQGTQVTVSS", "polyreactivity (PSR sort gate)": "low polyreactivity"}
{"sequence": "QVQLVESGGGLVQAGGSLRLSCAASGLICTYYAMGWYRQAPGKEWEFVAGISKSTSSTYYADSVKGRFTISRDNAKNTVYLLMISLKPEDTAVYYCAAQGGRNRGYRYYWGQGTQVTLSS", "polyreactivity (PSR sort gate)": "high polyreactivity"}
{"sequence": "QVQLVESGGGLVQAGGSLRLSCAASGLIFADNAMGWYRQAPGKEWELVASITLGDTSTYYADSVKGRFTISRYNAKNTVYLQMNSLKPEDTAVYYCAKDVYPSVSLYELPDDYWGQGTQVTVSS", "polyreactivity (PSR sort gate)": "low polyreactivity"}
{"sequence": "QVQLVESGGGLVQAGGSLRLSCAASGLIFADYVMGWYRQAPGKERELVVTINQGGGSTYYADSVKGRFTISRDNAKNTVYLQMNSLKPEDTAVYYCAATWALLYAIFESYDYWGQGTQVTVSS", "polyreactivity (PSR sort gate)": "low polyreactivity"}
{"sequence": "QVQLVESGGGLVQAGGSLRLSCAASGLIFAINAMGWYRQAPGKEREMVAAIRWSGDSTYADSVKGRFTISRDNAKNTVYLQMNSLKREDTAVYYCAADDLLDYDYWGQGTQVTVSS", "polyreactivity (PSR sort gate)": "low polyreactivity"}
{"sequence": "QVQLVESGGGLVQAGGSLRLSCAASGLIFAYAMGWYRQAPGTERELVAAISGRDGSTYYADSVKGRFTISRDNAKNTVYLQMNSLKPEDTAVYYCAKRISYLPVEMDYWGQGTQVTVSS", "polyreactivity (PSR sort gate)": "low polyreactivity"}
{"sequence": "QVQLVESGGGLVQAGGSLRLSCAASGLIFDCYARGWYRQAPGKERELVAAITYTGGSTYYADSVKGRFTISRDNAKNTDYIQMNSLKPEDTAVYYCAARRQRDRYGYWGQGTQVTVSS", "polyreactivity (PSR sort gate)": "high polyreactivity"}
{"sequence": "QVQLVESGGGLVQAGGSLRLSCAASGLIFDSYAMGWYRQAPGKERELVAAITYTGGSTYYADSVKGRFTISRDNAKNTVYLQMNSLKPEDTAVYYCAARRQRDRYGYWGQGTQVTVSS", "polyreactivity (PSR sort gate)": "high polyreactivity"}
{"sequence": "QVQLVESGGGLVQAGGSLRLSCAASGLIFFFYAMGWYRQAPGKERELVAAISSGGTTNYADSVKGRFTISRDNAKNTVYLQMNSLKPEDTAVYYCAARPSTYWSLGQHYGISGYWGQGTQVTVSS", "polyreactivity (PSR sort gate)": "low polyreactivity"}
{"sequence": "QVQLVESGGGLVQAGGSLRLSCAASGLIFFFYAMGWYRQAPGKERELVASISGGGITYYADSVKGRFTISRDNAKNTVYLQMNSLKPEDTAVIKNDYWGQGTQVTVSS", "polyreactivity (PSR sort gate)": "low polyreactivity"}
{"sequence": "QVQLVESGGGLVQAGGSLRLSCAASGLIFGAYTMGWYRQAPGKERELVASITTSGDSTYYADSVKGRFTISRDNAKNTVYLQMNSLKPEDTAVYYCAAESTVGTDLGGDSWGQGTQVTVSS", "polyreactivity (PSR sort gate)": "high polyreactivity"}
{"sequence": "QVQLVESGGGLVQAGGSLRLSCAASGLIFGEYDMGWYRQAPGKERELVAAISDRGTSTYYADSVKGRFTISRDNAKNTVYLQMNSLKPEDTAVYYCATDRNYYYSWEYDYWGQGTQVTVSS", "polyreactivity (PSR sort gate)": "low polyreactivity"}
{"sequence": "QVQLVESGGGLVQAGGSLRLSCAASGLIFGGNAMGWYRQAPGKERELVAAISRSTGRTYYADSVKGRFTISRDNAKNTVYLQMNSLKPEDTAVYYCNAVGYAFPSYDSWGQGTQVTVSS", "polyreactivity (PSR sort gate)": "high polyreactivity"}
{"sequence": "QVQLVESGGGLVQAGGSLRLSCAASGLIFGRYAMGWYRQAPGKERELVAAITGRGGSTYYADSVKGRFTISRDNAKNTVYLQMNSLKPEDTAVYYCNKVYNPKSYIQYDYWGQGTQVTVSS", "polyreactivity (PSR sort gate)": "high polyreactivity"}
{"sequence": "QVQLVESGGGLVQAGGSLRLSCAASGLIFGSNAMGWYRQAPGKERELVAGISGSGEHYVLRRSVKGRVTISRDNAKNTVYVPMNSLKPEDTAVYYCATYSQSSKGPAGYDYWGQGTHVTVSS", "polyreactivity (PSR sort gate)": "high polyreactivity"}
{"sequence": "QVQLVESGGGLVQAGGSLRLSCAASGLIFGTNAMGWYRQAPGKERELVAAISGSGGRTYYADSVKGRFTISRDNAKNTVYLQMNSLKPEDTAVYYCAADYVYGTRDDYWGQGTQVTVSS", "polyreactivity (PSR sort gate)": "high polyreactivity"}
{"sequence": "QVQLVESGGGLVQAGGSLRLSCAASGLIFGWYAMGWSRQAPGKEREFVASIRYGGGSTYYADSVKGRFTISRDYAKNTVYLQMNSLKPEDTAVYYCAADRYPWHLQYVEYDSDYWGQGTQVTVSS", "polyreactivity (PSR sort gate)": "low polyreactivity"}
{"sequence": "QVQLVESGGGLVQAGGSLRLSCAASGLIFGYNAMGWYRQAPGKESELVAAISSSGGSTSYADSVKGRFTISRDNAKNTVYLQMNSLKPEDTAVYYCAAKPGRYADYDYNSWGQGTQVTVSS", "polyreactivity (PSR sort gate)": "low polyreactivity"}
{"sequence": "QVQLVESGGGLVQAGGSLRLSCAASGLIFGYYAMGWYRQAPGKERELVARITRRGGSTYYADSVKGRFTISRDNAKNTVYLQMNSLKPEDTAVYDCAADWYSPRISREYDYWGQGTQVTVSS", "polyreactivity (PSR sort gate)": "high polyreactivity"}
{"sequence": "QVQLVESGGGLVQAGGSLRLSCAASGLIFIVNAMGWYRQAPGKDRELVAAISSGGSTNYADSVKGRFTISRDNAKNTVYLQMNSLKPEDTAVYYCNAGRGPITQNVGSLAYRSDYWGQGTQVTVSS", "polyreactivity (PSR sort gate)": "low polyreactivity"}
{"sequence": "QVQLVESGGGLVQAGGSLRLSCAASGLIFKFYAMGGYRQAAGKERELVARISSSGGSTYYADSVKGRFTISRDNAKNTVYLQMNSLKPEDTAVYYCAAGAYYVERYARSSIFSYYYWGQGTQVTVSS", "polyreactivity (PSR sort gate)": "high polyreactivity"}
{"sequence": "QVQLVESGGGLVQAGGSLRLSCAASGLIFKNNAMGWYRQAPGKERELVAAIDSIGGSTYYADSVKGRFTISRDNAKNTVYLQMNSLKPEDTAVYYCATDYYFYPHSQYDYWGQGTQVTVSS", "polyreactivity (PSR sort gate)": "low polyreactivity"}
{"sequence": "QVQLVESGGGLVQAGGSLRLSCAASGLIFKSNAMGWYRQAPGKERELVAAITRTGGSTYYADSVKGRFTISRDNAKNTVYLQMNSLKPEDTAVYYCAKVVGRWRSSWELDYWGQGTQVTVSS", "polyreactivity (PSR sort gate)": "high polyreactivity"}
{"sequence": "QVQLVESGGGLVQAGGSLRLSCAASGLIFKSYVMGWYRQSPGKERELVAGITGSGGTTYYADSVKGRFTISRDNAKNTVYLQMNSLKPEDTAVYYCAAVFETGAGGFYYTLQYDSWGQGTQVTVSS", "polyreactivity (PSR sort gate)": "high polyreactivity"}
